Experimental data: the supplement of paper PMC10567573

B1: TRIM63 (parent)
chain: QEKKLSFIEALIQQYQEQLDKSTK

Variants of: B1
Assay: protein stability index of a GFP-peptide fusion (GPS, HEK-293T) (PSI 1-6); higher = more stable
Conditions: c terminus: a fixed tail appended
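Further: lentivirally expressed fusions sorted by FACS into six bins by GFP to DsRed ratio, PSI derived from sequencing read proportions per bin multiplied by bin number.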

Protein stability index, by site and new letter:
L5: Y 2.08, T 2.69, V 2.57, S 3.95, W 2.12, R 3.05
K21: L 2.17, A 2.92, M 2.27, Y 2.1, I 2.86, C 2.29, H 2.23, V 3.04, E 3.26, P 1.99, D 3.76, Q 3, G 2.02, F 2.54, T 1.75, S 2.78, W 1.63
Y15: C 2.1, Q 3.87, P 4.56, A 2.61, F 1.86, W 1, V 2.09, D 4.75, H 3.38, S 3.52, K 3.9, R 4.63, N 3.75, L 2.08, G 4.41, I 2.1, T 2.98
E9: N 2.64, T 1.79, V 1.7, C 2.05, A 1.93, S 2.68, Y 1.57, I 2.06, Q 2.76, P 3.96, R 2.82, K 3.62, F 1.8, L 1.39, M 2.22, W 1.6, H 2.33
T23: K 2.49, C 2.72, V 2.67, N 2.31, I 1.84, H 2.53, W 1.09, E 2.57, A 2.75, Q 2.89, S 2.7, D 3.33, P 2.24, M 1.92, R 2.66, L 1.51, G 2.77, Y 2.26
Q14: G 3.13, R 2.2, D 3.17, S 3.5, L 2.89, T 3.07, C 2.8, I 2.98, N 3.03, E 2.91, Y 1.95, H 2.03, W 1.07, M 2.44, P 3.86, V 2.49, A 2.43
L19: M 3.18, K 4.08, E 3.41, P 3.26, D 3.77, W 2.32, A 4.3, I 3.19, H 3.54, F 2.38, R 2.91, Q 3.21
A10: S 2.89, I 2.54, C 2.14, Y 2.06, K 2.39, T 2.72, V 2.38, Q 2.89, G 3.33, P 3.98, W 1.63, M 1.96, L 2.37, H 2.75, F 2.28, E 3.42, R 2.53, N 2.73, D 3.47
D20: T 2.47, F 1.66, A 2.5, L 1.72, H 1.77, R 1.77, V 1.2, G 2.13, N 2.08, C 1.69, W 1.83, M 2.98, I 1.31, Q 1.92, Y 1.48, P 2.46
I12: D 5.25, A 3.8, M 2.95, R 2.33, S 4.28, T 4.45, E 4.39, W 2.11, P 5.67, C 3.87, N 4.47, Y 2.37, L 3.51, K 3.7, V 2.6, G 3.98, F 3.18
K24: M 2.32, E 3.51, R 1.84, F 1.71, S 2.61, D 3.66, I 1.95, N 2.79, H 2.95, G 2.71, P 3.33, L 2.47, T 2.67, Q 2.68, C 2.99, A 2.25
Q18: V 2.3, N 3.28, R 2.51, I 2.08, T 2.93, L 2.25, E 2.51, F 1.98, Y 2.49, M 1.81, K 2.58, H 1.79, P 3.31, G 1.95, S 2.71, D 3.54, A 2.37, W 3, C 2.34
Q16: E 3.09, W 1.74, M 1.48, Y 2.32, S 2.41, V 2.7, I 1.87, F 2.07, L 1.49, T 2.62, R 2.38, C 2, K 4.03, N 3.05, H 2.57, A 2.5, G 3.81
E17: L 1.8, Y 2.84, C 2.47, W 1.3, H 2.11, M 2.08, T 2.68, G 2.21, F 2.25, K 2.16, V 1.75, A 2, R 1.45, Q 2.65, D 3, I 2.14, S 2.26, N 1.81
L11: T 3.96, S 5.13, N 4.78, H 4.63, A 3.71, M 3.09, D 5.13, P 5.29, Y 3.31, F 2.79, Q 4.81, K 4.45, G 4.46, C 4.29, I 2.02, E 4.73, W 3.43, V 2.65, R 4.58
S22: W 1.92, D 3.1, K 2.52, Q 2.43, M 2.65, A 2.23, H 2.7, N 2.89, E 3.21, P 3.1, I 2.74, T 2.75, G 2.26, C 2.26, V 2.45, R 1.98, F 3.09
F7: P 4.36, C 3.23, Y 2.48, M 3.33, N 4.97, A 4.05, T 3.98, W 4.19, H 4.2, L 3.06, G 4.64, V 3.45, D 4.53, R 3.92, Q 4.05, E 4.38, S 4.28, I 2.58
Q13: I 2.02, Y 2.35, T 2.74, E 3.54, C 2.67, P 4.35, A 2.46, R 2.7, V 1.98, K 2.64, W 1.32, N 2.79, G 2.53, M 2.02, F 1.84, L 2.1, D 3.54
I8: D 4.44, K 4.17, F 2.78, H 4.92, E 4.76, Y 3.63, C 4.38, V 1.28, G 5.05, W 3.56, M 3.96, P 4.89, N 5.18, R 4.08, A 3.83, T 2.64, Q 4.32, L 2.14
S6: E 2.86, D 3.02, H 2.39, W 1.46, V 2.42, I 1.74, A 2.16, G 2.8, L 2.2, Y 2.09, Q 2.43, N 2.59, C 2.74, M 2.03, F 2.32, P 3.17, K 2.62, T 2.54, R 3.16
